Results taken from patent US20200172956A1 (NATIONAL UNIVERSITY CORPORATION KUMAMOTO UNIVERSITY, published 2020).

Biological target: T1, type IV collagen α3-SmBiT (fusion protein having SmBiT at the C-terminal of wild-type type IV collagen α3(IV) … (Homo sapiens (Human), UniProt Q01955 43-1670))
T1 construct: also called α3 chain; COL4A3 in pFC36K SmBiT vector
Assay: split luciferase (NanoBiT) luminescence in culture supernatant of HEK293T cells co-expressing the domain-deleted α5 fusion with α3 and α4 chains

T1 sequence (Q01955 other isoform, or with tags, fused parts or gaps): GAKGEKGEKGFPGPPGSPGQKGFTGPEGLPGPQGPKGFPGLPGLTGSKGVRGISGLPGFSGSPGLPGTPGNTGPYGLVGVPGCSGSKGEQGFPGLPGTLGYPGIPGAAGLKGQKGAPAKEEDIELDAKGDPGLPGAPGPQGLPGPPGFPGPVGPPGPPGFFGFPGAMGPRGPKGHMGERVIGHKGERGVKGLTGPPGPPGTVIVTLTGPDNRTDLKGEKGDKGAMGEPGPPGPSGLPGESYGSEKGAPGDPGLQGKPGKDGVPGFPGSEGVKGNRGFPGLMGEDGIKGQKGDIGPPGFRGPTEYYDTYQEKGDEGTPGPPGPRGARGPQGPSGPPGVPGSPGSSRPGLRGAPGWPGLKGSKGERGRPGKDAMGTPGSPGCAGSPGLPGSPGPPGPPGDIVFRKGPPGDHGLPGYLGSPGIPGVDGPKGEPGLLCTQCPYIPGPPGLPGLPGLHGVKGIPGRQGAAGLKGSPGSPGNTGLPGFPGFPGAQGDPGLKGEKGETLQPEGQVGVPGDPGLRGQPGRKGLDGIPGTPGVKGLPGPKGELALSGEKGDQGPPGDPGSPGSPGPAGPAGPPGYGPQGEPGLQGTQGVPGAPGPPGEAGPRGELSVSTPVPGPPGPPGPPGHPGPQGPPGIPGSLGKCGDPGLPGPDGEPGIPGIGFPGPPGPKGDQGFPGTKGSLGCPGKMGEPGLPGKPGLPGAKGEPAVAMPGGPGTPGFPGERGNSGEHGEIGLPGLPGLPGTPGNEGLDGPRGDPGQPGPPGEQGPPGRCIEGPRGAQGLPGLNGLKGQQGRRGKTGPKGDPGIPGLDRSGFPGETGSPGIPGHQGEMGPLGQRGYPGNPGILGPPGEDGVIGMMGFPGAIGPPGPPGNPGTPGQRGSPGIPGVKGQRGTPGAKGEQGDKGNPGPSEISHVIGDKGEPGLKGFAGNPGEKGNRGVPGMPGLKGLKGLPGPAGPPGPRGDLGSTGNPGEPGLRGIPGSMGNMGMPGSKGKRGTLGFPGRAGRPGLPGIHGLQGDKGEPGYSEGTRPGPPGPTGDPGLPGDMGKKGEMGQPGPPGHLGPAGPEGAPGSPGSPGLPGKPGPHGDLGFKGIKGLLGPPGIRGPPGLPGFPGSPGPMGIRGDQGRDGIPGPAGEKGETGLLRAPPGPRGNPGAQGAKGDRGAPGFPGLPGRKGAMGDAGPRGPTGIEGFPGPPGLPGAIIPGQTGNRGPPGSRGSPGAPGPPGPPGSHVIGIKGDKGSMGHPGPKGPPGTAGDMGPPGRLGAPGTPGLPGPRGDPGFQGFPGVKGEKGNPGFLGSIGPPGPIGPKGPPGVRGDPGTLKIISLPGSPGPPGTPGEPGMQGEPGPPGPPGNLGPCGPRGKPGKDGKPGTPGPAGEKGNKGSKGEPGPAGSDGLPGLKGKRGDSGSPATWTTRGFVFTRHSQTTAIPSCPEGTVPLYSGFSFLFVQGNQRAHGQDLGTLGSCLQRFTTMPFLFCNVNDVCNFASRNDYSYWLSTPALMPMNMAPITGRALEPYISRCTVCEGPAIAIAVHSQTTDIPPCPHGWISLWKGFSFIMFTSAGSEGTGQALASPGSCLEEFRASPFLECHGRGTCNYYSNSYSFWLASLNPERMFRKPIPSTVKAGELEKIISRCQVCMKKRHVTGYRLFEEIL

binding result: no binding
B1: fusion protein having a split luciferase fragment at the C terminal of the NC1 domain of wild-type α5 chain (COL domain-deleted α5 chain) (other)
chain: GFLITRHSQTTDAPQCPQGTLQVYEGFSLLYVQGNKRAHGQDLGTAGSCLRRFSTMPFMFCNINNVCNFASRNDYSYWLSTPEPMPMSMQPLKGQSIQPFISRCAVCEAPAVVIAVHSQTIQIPHCPQGWDSLWIGYSFMMHTSAGAEGSGQALASPGSCLEEFRSAPFIECHGRGTCNYYANSYSFWLATVDVSDMFSKPQSETLKAGDLRTRISRCQVCMKRTMVFTLEDFVGDWEQTAAYNLDQVLEQGGVSSLLQNLAVSVTPIQRIVRSGENALKIDIHVIIPYEGLSADQMAQIEEVFKVVYPVDDHHFKVILPYGTLVIDGVTPNMLNYFGRPYEGIAVFDGKKITVTGTLWNGNKIIDERLITPDGSMLFRVTINS
notes: The residue range is converted from nucleotide numbers; also called 4COL (so in the source); probably ΔCOL
